Measurements published in the supplement of paper PMC12042874.
± gives the uncertainty stated by the source.

Test: amyloid nucleation score (Sup35N fusion, yeast selection) (log enrichment); library NNK2; higher = more nucleation; inactive = no reads after selection
Procedure, shortened: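 Yeast lacking psi expressed peptides of 20 random codons fused to Sup35N, received 100 μM copper sulfate for 24 hours, and were then grown for 7 days at 30°C on medium lacking adenine and uracil. Illumina sequencing of input and output plasmid inserts provided the reads. Nucleation scores are DiMSum log enrichments of output over input, centred on the mode of non-aggregating sequences. Any sequence with under 100 input reads was excluded.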

| Substance | amyloid nucleation score |
| --- | --- |
| CIYHGANRIYLSDVA | 0.381 ± 0.6 |
| DWFVSGTSDRVVGNSAGGGV | 0.589 ± 0.66 |
| LVTEVEFMSTAAGKECYCNI | -0.555 ± 0.35 |
| SFVNFCRLRASLCAVAISTT | inactive |
| QFPTCVHKPSCWDF | 0.291 ± 0.5 |
| GTYFNLYAGVLSVRQWPPHI | 4.42 ± 0.061 |
| FSLCDILVLVNTNAGWAAFD | -0.352 ± 1 |
| WQTEFIYSQVSTVGYKRLEG | 2.38 ± 0.089 |
| QNCSHGSLCG | -0.022 ± 0.25 |
| FVGCVNLRLCSSITTAWSSL | 8.346 ± 0.046 |
| VFGKGQWVDLIRRREDVYTN | -0.759 ± 1.1 |
| LFLSLTTQNWFNYNLPI | 7.32 ± 0.026 |
| GCLLLPKGASHKIDYCGSDV | 0.396 ± 0.35 |
| MTRNGDLFS | 0.657 ± 0.4 |
| WVNSKLGLKVSLIEAGVEVS | -0.116 ± 0.43 |
| NNSYIRLS | -0.883 ± 0.45 |
| IFHLGLRR | 5.706 ± 0.053 |
| RYKWFNKWYTCWYSRFKFYV | -1.13 ± 0.26 |
| ANCATSVLCCSGCV | 0.878 ± 0.14 |
| VHFASPRRACRFIRRRYTTH | 3.77 ± 0.11 |
| QCFIWSHRVIVGFHGLGLSA | -0.02 ± 0.79 |
| QKYWCDFSNK | inactive |
| FFVESRSCSGYKMMKRCLDV | 1.54 ± 0.15 |
| GPTNVIRTISRDTTIV | -0.646 ± 0.39 |
| CTFFTSTPT | 0.343 ± 0.51 |

| Substance | amyloid nucleation score |
| --- | --- |
| SMQFFFRS | 6.51 ± 0.072 |
| VDMTGCLTGVDVTSLRNIPL | 0.931 ± 0.38 |
| MGLNYLKQQAARYDEGGPS | 1.5 ± 0.42 |
| HDYVLFISECHKLLGAS | inactive |
| LTDCLLLLFGLLGRFYRNLS | inactive |
| TTLYGNSRFTVCMTKGW | -0.271 ± 0.74 |
| ILAITRINA | 1.19 ± 0.13 |
| GSWLIEMCEVVSNSMTSMGP | 1.29 ± 0.3 |
| MSYAYKVRSCCVMFMMFRSW | -0.336 ± 0.54 |
| HYWIVRLDAWVSQSVRWCNP | 10.95 ± 0.079 |
| AWFMCSFECVTRSVKHALR | 0.523 ± 0.64 |
| LGHASSFCAYCRFDSM | 4.16 ± 0.068 |
| PVWKVERRNSHLLKDIGNSI | 0.325 ± 0.57 |
| ARDRNSFGLDCAVFMSYFTT | 3.34 ± 0.11 |
| VLAILVTNLRLSSWFQSHMM | 0.837 ± 0.52 |
| VYQYWYIAISLRGRPGQCRL | 4.06 ± 0.05 |
| SVRPRPD | 0.617 ± 0.23 |
| RFVVWRHFSWIATMLSTIPV | 1.13 ± 0.35 |
| YFSFTGPHLDVA | -0.937 ± 0.34 |
| MLVNRFGGVA | -0.402 ± 0.38 |
| FTGRETFQRKRFAAVLSSSV | -0.062 ± 0.65 |
| GFRVVCHILALCRYGTCLEI | -0.608 ± 0.35 |
| GGSKTRLFL | -0.263 ± 1.1 |
| RMCMR | 0.017 ± 0.34 |
| LNIFI | 2.96 ± 0.062 |

| Substance | amyloid nucleation score |
| --- | --- |
| ASIPINHPHRVRLNTSYECI | -0.657 ± 0.56 |
| CSDCDSRMC | -0.41 ± 0.42 |
| IFFALNSTPPYYIYPEFKLQ | inactive |
| PDFFCRSVVNQKMYLKTLHY | -1.03 ± 1.1 |
| YLKKVQWYRQAYFGA | -0.694 ± 0.28 |
| YGASRNWQKNSLVASEYQVG | inactive |
| LRRDL | -0.408 ± 0.63 |
| NLVILFGKWRRFLFAQWNWF | inactive |
| SSNSEDDGNWMMLLSNKYRI | 0.559 ± 0.27 |
| LENWSNMGENCSTVDRPNLF | -0.4 ± 1.1 |
| VNYVDGWV | 1.45 ± 0.34 |
| AVALYVSDSQDHPGNRNVLV | 2.45 ± 0.099 |
| YEVGHPYFDDNCRICSFWWK | 1.82 ± 0.12 |
| IIPLMLFSTLWGFKVHMKGY | -0.207 ± 0.55 |
| AWSLDVTTM | 0.051 ± 0.27 |
| SRKSFLLCILLCSITLPLAR | -1.09 ± 0.44 |
| GNPTESG | 0.148 ± 0.29 |
| IRHNVKRLGATNVW | -0.09 ± 0.76 |
| TNIQN | -0.69 ± 0.61 |
| STVYIVCHGVILRVRMGPWL | 2.46 ± 0.12 |
| AASWTPSCNCPPWVFHGWLL | 0.16 ± 0.8 |
| NFKTI | inactive |
| YLTNLNNCADKSNCW | inactive |
| TSNCS | 0.579 ± 0.3 |
| TVMCLNLLR | 6.454 ± 0.026 |

| Substance | amyloid nucleation score |
| --- | --- |
| VVCFMPSFYAGPKI | 5.281 ± 0.041 |
| AWESIAFPCKVIYCYLRWTL | inactive |
| VLHCHWTGFSRSTCVHLVHF | 3.63 ± 0.084 |
| SIPIIETGVWYVNNRVLMN | -1.43 ± 0.54 |
| TCFMRCRTCNLRVIHSDVF | 5.546 ± 0.048 |
| VVRMVHLSADFQGK | 5.26 ± 0.095 |
| RECDKEFRQSSSCIDRRLGM | -0.156 ± 0.8 |
| RRGQEGYRVEWA | 1.22 ± 0.59 |
| HIAID | 0.401 ± 0.56 |
| MIWGVT | 1.01 ± 0.4 |
| NVLGSRLKLMNEGIDLALIK | 6.38 ± 0.069 |
| SRAKNLHSFKSNMCDAFSYN | inactive |
| GNNFIF | inactive |
| GLMTYFSSVESGEHTDRNLS | -0.732 ± 0.33 |
| CLSVCCEDFNRSLTHYASSL | -0.743 ± 0.76 |
| RLSIHKSFVFDLTRSALSTM | -0.293 ± 0.55 |
| YNSVKLLEGPFLCSSLTGS | 0.444 ± 0.6 |
| YFNGERFTRFISMEE | -1.21 ± 1.1 |
| MHHQSSAFNQGHASPYLSWK | 0.741 ± 0.39 |
| FCMVGLCMCGRQEMCGSTDS | 5.99 ± 0.062 |
| TMYVREYSFYFLYNVDITRG | 0.649 ± 0.32 |
| WVTGPSRPD | 0.387 ± 0.8 |
| CAPVTLVFRYAGIYMQLFIW | inactive |
| LYLVEARVTLYILGPWVVSR | 0.927 ± 0.45 |
| DDYTDTCRCDMFRFSEFLTN | -0.534 ± 0.74 |

| Substance | amyloid nucleation score |
| --- | --- |
| LSLFVQMMSVGTILLYRMTL | 0.715 ± 0.34 |
| NRKYTILVLDLLEGSLCARE | 0.599 ± 0.42 |
| YTCCLL | 5.914 ± 0.035 |
| RKDSCCSVNRCDAMSFVRGI | 0.073 ± 1.1 |
| DRPSCEFEPMFRRWDYSEGA | 0.11 ± 0.23 |
| WMIIVA | 0.582 ± 0.54 |
| VYDQIYGRLANRLVHNKWRR | -0.341 ± 0.55 |
| YIIDRKEHFLSKCY | -0.738 ± 0.55 |
| QMCIVDTNGRN | 0.861 ± 0.6 |
| TSSWIMIRS | 1.52 ± 0.19 |
| HCFALGR | 0.088 ± 0.21 |
| VYKFEKESLLTLSHIHKVAS | -0.012 ± 1.1 |
| LYINGEISVVIRIWFGPLVV | 0.517 ± 0.53 |
| RESARRKAYLLSKNGSNWLH | -0.249 ± 0.5 |
| FSCEACIFLLYSYMFMNL | -0.522 ± 0.55 |
| MVIGNLGLLLEGLRVEYLNH | inactive |
| RTSRVKVR | 4.13 ± 0.074 |
| WYYRLLWYVLSQGRMRGNVQ | -0.011 ± 0.41 |
| MFCGDSCSTVPCCVCICFLY | 5.02 ± 0.058 |
| GTGIHLLLLVGSGDSSREMM | -1.08 ± 0.36 |
| CRYTASASDPDDTGLIRFNA | 3.75 ± 0.073 |
| AETLPFWGNG | 0.695 ± 0.57 |
| LIRKFRVVVMFSYVQVLPVI | 0.173 ± 1.1 |
| TYGGEV | 0.251 ± 0.31 |
| WFMSKAYVTSCALFSRVIHT | 0.914 ± 0.43 |

| Substance | amyloid nucleation score |
| --- | --- |
| SSLCIRSAL | -0.092 ± 0.63 |
| FYLRNSVMCTGPDLGNSTYM | -1.15 ± 1.1 |
| QEVFSN | -0.849 ± 1.1 |
| CRMHVFVEC | -0.019 ± 0.53 |
| MGPDMYVCKVWLGAVAYEMG | 1.95 ± 0.4 |
| GNYFPYFQVWSISRFLMSIS | inactive |
| CLRGSR | 0.03 ± 0.2 |
| LIGIARSRVYRVKECFVHGL | 0.519 ± 0.43 |
| CNFSCGPKNQKNSMILWILN | inactive |
| EVIANWLENGYYVSKTVFVD | -0.026 ± 0.29 |
| RSHVVH | 1.18 ± 0.68 |
| MNFCGNRCPFSLYIPWTACV | -0.664 ± 1.1 |
| RCIYWHVTVIFIMDIWVRTY | 0.415 ± 0.17 |
| FEFYLIARIFCPKGLLCESS | inactive |
| MTCCF | -0.877 ± 1.1 |
| VINLDKLIFVLEDNCIVFWE | 6.374 ± 0.023 |
| CCFVVISYDRNSQLH | 9.791 ± 0.043 |
| ERFRIGTCSIRCSYILGLRR | -0.898 ± 0.54 |
| WHMLHRVDKAISFSLSCCGR | 7.81 ± 0.084 |
| VSYKWNGEWVRAPFDLQGCI | -0.464 ± 1.1 |
| HLYLEYGNVTWGWVMVLIVG | inactive |
| LAVKRMFSNFIFKAGTRNIW | inactive |
| DLVSLLSGVFVMFVGLCFEV | -0.733 ± 1.1 |
| RILFRGHSVLKNWF | -1.86 ± 0.49 |
| FFYWL | inactive |

| Substance | amyloid nucleation score |
| --- | --- |
| TDNMDEMDREYLSCHKFCFG | 3.69 ± 0.045 |
| PFLSLAVFVTQAVVEHCCRC | 7.48 ± 0.085 |
| QRPAGYHQTLSVARQRLRPD | -0.73 ± 0.76 |
| LLQKDEVRE | -0.505 ± 0.3 |
| TLELLIMD | 0.385 ± 0.33 |
| TLHVVQFWKSCI | -0.343 ± 0.45 |
| VTVRRCSFFQVY | -0.196 ± 0.41 |
| LELMEYPL | -0.153 ± 0.45 |
| FSVRLISFRSSLLLMSQDLL | 0.138 ± 1.1 |
| ELLQVEYNHHDSKEFMLVMI | 0.239 ± 0.43 |
| TWQTLYASSVFFANPVEHPL | 0.068 ± 0.29 |
| FSYNMACLNKLLSLSLYRFS | -1.29 ± 0.44 |
| DFCCWCPFCYVSWYEGIVMI | 0.305 ± 1 |
| MVKSHLMTKFCD | -0.394 ± 0.34 |
| MFHCSSKACLPVVDVGVVVC | 0.96 ± 0.29 |
| TQCSLRLKFTCYAMRSFGQY | 5.02 ± 0.096 |
| SKCCASLTQLITTGVLAYRA | 0.489 ± 0.49 |
| RLRQMCFKRNSVKLLLWNRF | 0.409 ± 0.8 |
| YNTPIIPAWVFSFHQWPEAF | -1.6 ± 1.1 |
| HHIGGMIS | -0.09 ± 0.3 |
| FHLIALNCRWADDLFIGSGV | 0.374 ± 0.62 |
| AVKCGNGSEF | -0.066 ± 0.45 |
| ENYFCSYWFCFSWALG | 6.362 ± 0.062 |
| DITLFYSDTSCRFSVPCSVD | 0.598 ± 0.46 |
